Experimental data taken from article PMC4017264 (Molecular Cell, 2014).
Non-standard residues stand in square brackets, D forms with d. No end group written: not given here. *: point of attachment. FITC = O=C1OC2(c3ccc(O)cc3Oc3cc(O)ccc32)c2ccc(NC(=S)*)cc21; pY = N[C@@H](Cc1ccc(OP(=O)(O)O)cc1)C(=O)O; Ahx = NCCCCCC(=O)O

Key:
[1] = system: HOIP PUB domain (15N HOIP 1-184); assay: NMR binding (chemical shift perturbation) to 15N-labeled HOIP PUB domain; parameters: species or system Human; settings: 15N BEST-TROSY NMR, 100 μM 15N HOIP 1-184, 20 mM phosphate pH 6.8, 50 mM NaCl, 2 mM DTT, 298K
Protocol: Standard triple-resonance experiments (HNCA, HN(CO)CA, HNCACB, CBCA(CO)NH, and HBHA(CO)NH) were acquired for the assignment of HOIP resonances. Constant time ^13C and ^13C-HSQC were acquired for the methyl and aromatic regions. In addition, (HB)CB(CGCD)HD and (HB)CB(CGCDCE)HE experiments coupled the Cβ of tyrosine resonances to the Hδ and Hε positions of the tyrosine ring, respectively.
(§1) Fluorescence polarization binding assays
(§2) 10 µl of 100 nM FITC-Ahx peptides of either OTULIN (49-67) or p97 (797-806) were aliquoted into a 384-well low volume plate (Corning). Serial dilutions of HOIP PUB into FP assay buffer (20 mM Tris pH 7.4, 100 mM NaCl, 1 mM DTT) were prepared and 10 µl of this was aliquoted to FITC-Ahx peptide-containing wells. Fluorescence polarization was recorded on a PheraStar plate reader (BMG Labtech) using an optics module with $ex = 485 nm and $em = 520 nm. To derive binding constants (KD), polarization values were fitted to a one-site binding model using Graphpad Prism 5.
Nuclear Magnetic Resonance Spectroscopy
Uniformly labeled 15N or 13C, 15N samples of HOIP were prepared following growth in 2M9 medium supplemented with either 15N NH4Cl or 13C glucose.
Proteins were purified as described above and all samples were exchanged into NMR sample buffer (20 mM Na2HPO4/NaH2PO4 pH 6.8, 50 mM NaCl, 2 mM DTT). Lyophilized OTULIN and p97 PIM peptides were reconstituted in NMR sample buffer and the pH adjusted to pH 6.8 prior to use. NMR data were acquired at 298K on Bruker Avance III 600 MHz and Avance2+ 700
MHz spectrometers, equipped with cryogenic triple resonance TCI probes.
Standard triple resonance experiments (HNCA, HN(CO)CA, HNCACB, CBCA(CO)NH, HBHA(CO)NH) were acquired for the assignment of backbone
HOIP resonances. In addition, constant-time (ct) 13C and 13C-HSQC were acquired for the methyl and aromatic regions. For assignment of the H",H# resonances of HOIP tyrosines, (HB)CB(CGCD)HD and (HB)CB(CGCDCE)HE spectra were acquired, which coupled the C$ position of the tyrosine resonances to the H"/H# position of the tyrosine ring respectively. […]

[2] = system: endogenous LUBAC (HOIP, HOIL-1, SHARPIN); assay: coimmunoprecipitation of endogenous LUBAC components with HA-tagged OTULIN; assay type: cell-based; settings: HA-OTULIN variants in HEK293T cells, anti-HA IP, western blot
Protocol: Transfected HEK293T or U2OS and NOD2 cells were lysed in the presence of protease and phosphatase inhibitors. Clarified lysates were incubated overnight with anti-V5 and anti-HA-agarose resin. […]
siOTULIN: […], siMM […]
Immunoprecipitation of HOIP-V5 and HA-OTULIN
HEK293T or U2OS/NOD2 cells were transfected as indicated. The cells were lysed in IP buffer buffer (25 mM HEPES pH 7.4, 150 mM KCl, 2 mM MgCl2, 1 mM EGTA, 0.5% (v/v) Triton X-100) supplemented with 5 mM NEM (Sigma-Aldrich), cOmplete protease inhibitor cocktail (Roche) and PhosSTOP
(Roche). After 30 minutes on ice, the lysates were cleared by centrifugation and incubated overnight at 4 °C with anti-V5-agarose resin or anti-HA-agarose resin. The beads were washed four times in ice-cold IP buffer and the precipitated material was eluted with 0.2 M glycine, pH 2.5. […]

[3] = biological target: T1, HOIP PUB domain (HOIP 1-184) (Homo sapiens, UniProt Q96EP0); assay: fluorescence polarization binding of FITC-Ahx peptides to HOIP PUB domain; settings: for reduction of HOIP binding versus wild-type OTULIN peptide: OTULIN peptide point mutants
T1 construct: PUB domains from HOIP (aa 1–184, red); His6 (3C-cleavable, pOPINB) (N, cleaved yes); made in house; host or cells: E. coli Rosetta2 (DE3) pLacI
T1 sequence (Q96EP0 1-184): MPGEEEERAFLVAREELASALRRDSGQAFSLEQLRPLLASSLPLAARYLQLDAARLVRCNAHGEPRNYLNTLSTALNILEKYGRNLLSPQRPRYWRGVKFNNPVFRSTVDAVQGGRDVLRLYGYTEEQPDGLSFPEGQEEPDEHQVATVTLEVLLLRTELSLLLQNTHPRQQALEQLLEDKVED
Protocol: Serially diluted PUB domains and HOIP variants were mixed with an equal volume of 100 nM FITC-Ahx-labeled peptides of OTULIN and p97. Fluorescence polarization was recorded on a PheraStar plate reader (BMG LABTECH) and fitted to a one-site binding model with GraphPad Prism 5.
as §1
as §2, with “5. […]” for “5.”

[4] = biological target: T2, HOIP extended PUB domain (aa 1–184) (UniProt Q96EP0 1-184); assay: FP
T2 chain: T1 sequence (Q96EP0 1-184)

PNGase PUB domain R55A = biological target: T3, PNGase PUB domain R55A (UniProt Q96IV0 11-109, Arg55 was mutated to Ala); assay: fluorescence polarisation; serially diluted PUB domains and HOIP variants mixed with an equal volume of 100 nM FITC-Ahx-labeled peptide; one-site binding model; triplicate; settings: both partners purified
T3 construct: PNGase PUB domain with Arg55 mutated to Ala; also called PNGase mutant; Arg55 mutated to Ala
T3 sequence (looked up): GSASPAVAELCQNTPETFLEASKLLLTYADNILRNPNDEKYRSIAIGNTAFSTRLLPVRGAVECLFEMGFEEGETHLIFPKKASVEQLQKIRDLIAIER

[5] = biological target: T4, HOIP extended PUB domain (aa 1–184) (UniProt Q96EP0 1-184); assay: as above; settings: both partners purified
T4 construct: 15N- or 13C,15N-labelled for NMR; Construct details are in the Supplemental Experimental Procedures; also called HOIP PUB domain
T4 sequence (looked up): T1 sequence (Q96EP0 1-184)

“OTULIN 49-67: unlabeled OTULIN PIM peptide (aa 49–67) used in NMR and crystallization (AEHEEDMYRAADEIEKEKE)” was tested, and the “binding / chemical shift perturbations of HOIP PUB domain (in words)” value [1] was “CSPs and loss of a large number of resonances, a feature common to slow exchange”.

With “OTULIN Y56F: HA-tagged full-length OTULIN with PIM point mutation Y56F” the “coimmunoprecipitation of endogenous LUBAC components (in words)” value (shortened to “coimmunoprecipitation”) [2] was “abrogated binding”.

With “Y56W: fluorescently labeled OTULIN peptide (aa 49–67) with point mutation Y56W ({FITC-Ahx}-AEHEEDMWRAADEIEKEKE)” the “reduction of HOIP binding versus wild-type OTULIN peptide” value [3] was 100 fold.

For “OTULIN Y56A: HA-tagged full-length OTULIN with PIM point mutation Y56A”, the “coimmunoprecipitation” value [2] was “abrogated binding”.

“OTULIN D54A: HA-tagged full-length OTULIN with PIM point mutation D54A” was tested, and the “coimmunoprecipitation” value [2] was “Residual binding was still observed”.

With “D54A: fluorescently labeled OTULIN peptide (aa 49–67) with point mutation D54A ({FITC-Ahx}-AEHEEAMYRAADEIEKEKE)” the “reduction of HOIP binding versus wild-type OTULIN peptide” value [3] was 60 fold.

“OTULIN Y56E: HA-tagged full-length OTULIN with PIM point mutation Y56E” was tested, and the “coimmunoprecipitation” value [2] was “abrogated binding”.

For “Y56A: fluorescently labeled OTULIN peptide (aa 49–67) with point mutation Y56A ({FITC-Ahx}-AEHEEDMARAADEIEKEKE; UniProt Q96BN8 49-67, looked up, variant Y56A)”, the “binding to HOIP PUB domain (in words)” value [3] was “abrogated binding”.

For “M55D: fluorescently labeled OTULIN peptide (aa 49–67) with point mutation M55D ({FITC-Ahx}-AEHEEDDYRAADEIEKEKE)”, the “binding to HOIP PUB domain (in words)” value [3] was “abrogated binding”.

In the case of “FITC-Ahx-OTULIN 49-63 pY56: Tyr56-phosphorylated FITC-Ahx-labeled OTULIN peptide (legend: 49–67) ({FITC-Ahx}-AEHEEDM[pY]RAADEIEKEKE)”, the “binding to HOIP PUB domain (in words)” value [3] is reported as “unable to bind HOIP”.

B1: fluorescently labeled OTULIN peptide (aa 49–67) Y56W (peptide)
peptide: {FITC-Ahx}-AEHEEDMWRAADEIEKEKE
Molecule B1 has a Kd [4] of 21.3 µM.

B2: fluorescently labeled OTULIN PIM peptide (aa 49–67) M55L (peptide, UniProt Q96BN8 49-67, looked up)
peptide: {FITC-Ahx}-AEHEEDLYRAADEIEKEKE
notes: OTULIN, residues 49-67, Met55 exchanged to Leu (as in p97); also called OTULIN M55L PIM peptide
Molecule B2 has a Kd (PNGase PUB domain R55A) of 5 µM and a Kd [5] of 0.37 µM.

B3: fluorescently labeled OTULIN peptide (aa 49–67) Y56F (peptide)
peptide: AEHEEDMFRAADEIEKEKE
modifications: not fully specified (N-terminus)
B3 showed a Kd [4] of 64.5 µM.

B4: OTU domain: OTULIN catalytic (OTU) domain (aa 80–352) (protein)
chain: LSVAPEMDIMDYCKKEWRGNTQKATCMKMGYEEVSQKFTSIRRVRGDNYCALRATLFQAMSQAVGLPPWLQDPELMLLPEKLISKYNWIKQWKLGLKFDGKNEDLVDKIKESLTLLRKKWAGLAEMRTAEARQIACDELFTNEAEEYSLYEAVKFLMLNRAIELYNDKEKGKEVPFFSVLLFARDTSNDPGQLLRNHLNQVGHTGGLEQVEMFLLAYAVRHTIQVYRLSKYNTEEFITVYPTDPPKDWPVVTLIAEDDRHYNIPVRVCEETSL
modifications: left off: His6 (from the vector pOPINB), end not stated, state not stated
For B4, the “binding / chemical shift perturbations of HOIP PUB domain (in words)” value [1] was “did not interact with the HOIP PUB domain”.

B5: fluorescently labeled OTULIN peptide (aa 49–67) D54A (peptide)
peptide: {FITC-Ahx}-AEHEEAMYRAADEIEKEKE
B5 showed a Kd [4] of 11.2 µM.
